Measured values from patent US20260209370A1 (RADIANT BIOTHERAPEUTICS, published 2026).

Assays:
[1] = biological target: 4-1BB on engineered 4-1BB-expressing effector cells (luciferase reporter assay) (UniProt Q07011); test: cell-based or functional assay
[2] = biological target: 4-1BB on engineered 4-1BB-expressing effector cells (luciferase reporter assay) (UniProt Q07011 24-255, limits assumed); test: cell-based or functional assay
[3] = biological target: T1, recombinant mouse 4-1BB protein (mouse, UniProt P20334 24-187); test: ELISA, plates coated with recombinant 4-1BB, detection with goat α-human Fcγ-HRP
T1 sequence (looked up): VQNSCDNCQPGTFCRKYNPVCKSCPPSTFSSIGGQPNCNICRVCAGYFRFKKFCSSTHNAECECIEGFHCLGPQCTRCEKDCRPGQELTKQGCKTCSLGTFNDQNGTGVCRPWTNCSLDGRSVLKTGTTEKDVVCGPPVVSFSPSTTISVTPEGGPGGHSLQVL
Protocol: Cross-reactivity was assessed using ELISA. Briefly, plates were coated with recombinant 4-1BB proteins derived from either human, cynomolgus monkey, or mouse. Plates were then washed, blocked, and incubated with bovine serum albumin (BSA), along with a series of known concentrations of α-4-1BB IgGs/MBs. The plate was then washed and incubated with a Goat α-human Fcy-HRP secondary antibody to detect bound IgG/MB. The plates were then washed again and developed with TMB substrate to detect HRP and read at OD 450 nm.

Urelumab MB (effector-silent α-4-1BB Multabody displaying scFabs based on urelumab)
EC50 (nM) + Fc (4-1BB agonism, luciferase reporter, with FcγRIIb CHO-K1 cells) [1]: 0.079 nM
EC50 (nM) - Fc (4-1BB agonism, luciferase reporter, without Fc crosslinking) [1]: 0.087 nM

B1: effector silent α-4-1BB (AG10058; Fab #3) MB (protein, part only; not given: Fab constants, linkers, ferritin carriers, not shown: another chain or arm of the molecule; a dimerising Fc or GST; large carriers; small tags and cut ends)
VH: EVQLVESGGGLVQPGGSLRLSCAASGFSLSTSGVGVGWIRQAPGKGLEWLALIDWDDDKYYSPSLKSRLTISRDNSKNTLYLQLNSLRAEDTAVYYCARGGSDTVLGDWFAYWGQGTLVTVSS
VL: DIQLTQSPSSLSASVGDRVTITCRASQSVSPYLAWYQQKPGKAPKLLIYDASSLESGVPSRFSGSGSGTDFTLTISSLQPEDFATYYCQQGYSLWTFGQGTKVEIK
modifications: Self-assembled ferritin nanocage (Multabody) made from scFab-hFTL, scFab-N_hFTL and scFc(LLRAL)-C_hFTL fusions, with genes mixed 2:1:1. The letters do not carry this multivalent display.
EC50 (nM) + Fc (4-1BB agonism, luciferase reporter, with FcγRIIb CHO-K1 cells) [1]: 0.019 nM
EC50 (nM) - Fc (4-1BB agonism, luciferase reporter, without Fc crosslinking) [1]: 0.02 nM

B2: NM21 IgG1 (parent IgG of Fab #1) (antibody, V domains shown)
VH: EVQLVESGGGLVQPGGSLRLSCAASGFSFSANYYPCWVRQAPGKGLEWIGCIYGGSSDITYDANWTKGRFTISRDNSKNTVYLQMNSLRAEDTAVYYCARSAWYSGWGGDLWGQGTLVTVSS
VL: DIQMTQSPSSLSASVGDRVTITCQASQSISNRLAWYQQKPGKAPKLLIYSASTLASGVPSRFSGSGSGTDFTLTISSLQPEDFATYYCQSTYYGNDGNAFGTGTKVTVLG
EC50 (nM) + Fc (4-1BB agonism, luciferase reporter, with FcγRIIb CHO-K1 cells) [2]: 0.258 nM

B3: AG10058 IgG (IgG4; parent IgG of Fab #3) (antibody, V domains shown)
VH: EVQLVESGGGLVQPGGSLRLSCAASGFSLSTSGVGVGWIRQAPGKGLEWLALIDWDDDKYYSPSLKSRLTISRDNSKNTLYLQLNSLRAEDTAVYYCARGGSDTVLGDWFAYWGQGTLVTVSS
VL: DIQLTQSPSSLSASVGDRVTITCRASQSVSPYLAWYQQKPGKAPKLLIYDASSLESGVPSRFSGSGSGTDFTLTISSLQPEDFATYYCQQGYSLWTFGQGTKVEIK
notes: also called Fab #3 IgG
EC50 (nM) + Fc (4-1BB agonism, luciferase reporter, with FcγRIIb CHO-K1 cells) [2]: 0.346 nM
binding result [3]: binds

B4: Urelumab IgG4 (antibody, V domains shown)
VH: QVQLQQWGAGLLKPSETLSLTCAVYGGSFSGYYWSWIRQSPEKGLEWIGEINHGGYVTYNPSLESRVTISVDTSKNQFSLKLSSVTAADTAVYYCARDYGPGNYDWYFDLWGRGTLVTVSS
VL: EIVLTQSPATLSLSPGERATLSCRASQSVSSYLAWYQQKPGQAPRLLIYDASNRATGIPARFSGSGSGTDFTLTISSLEPEDFAVYYCQQRSNWPPALTFGGGTKVEIK
EC50 (nM) + Fc (4-1BB agonism, luciferase reporter, with FcγRIIb CHO-K1 cells) [2]: 0.25 nM
EC50 (nM) - Fc (4-1BB agonism, luciferase reporter, without Fc crosslinking) [2]: 0.442 nM
